Among the data in patent publication US20230115257A1 (published 2023) are EC50 values, retold here.

B1: 9-J11-A (antibody, V domains shown)
VH: QVQLQQSGAELVKPGASVKMSCMASGYTFTTYPIEWMKQIHGKSLEWIGNFHPYNDDSKYNEKFKGKATLSVEKSSSTVYLELSRSTSDDSAVYYCARGSYGPYWYFDVWGTGTTVTVSS
VL: DIQMTQSPASLSASVGETVTITCRASGDIHNYLVWYQQKQGKSPQLLVYNAKALADGVPSRFSGSGSGTQYSLKINSLQPDDFGSYYCQHFWSIPYTFGGGTKLEIK
B2: 6-L8-A (antibody, V domains shown)
VH: EVQLQQSVAELVRPGASVKLSCTPSGFNIKNTYMHWMKQRPEQGLEWIGRINPANDDTKYAPKFQDKATITADTSSNTAYLQLSSLTSEDTAIYYCVYDVRWYFDVWGTGTTVTVSS
VL: DVVMTQTPLSLPVSLGDQASISCRSSQGLVHSNGNTYLHWYLQKPGQSPKLLIYKVSNRFSGVPDRFSGSGSGTDFTLKISRVEAEDLGVYFCSQSTHVPPTFGAGTKLELK
B3: 3-E13-A (antibody, V domains shown)
VH: EVQLQQSGPELVKPGASVKMSCKASGYTFTDYNIHWVKQSHGKSLEWIGYINPNNGGTDYNQKFQGKATLTVNKSSSTAYMELRSLTSEDFAVYYCARGGFYGNYGAYYGMDFWGQGTSVTVSS
VL: DIQMTQSPASLSASVGETVTITCRTSENIYSHLAWYQQTQGKSPQLLVYNAKTLAEGVPSRFSGSGSGTHFSLKINSLQPEDFGSYYCQHHYGIPPEFGGGTKLEIK
B4: 6-C19-A-WT (antibody, V domains shown)
VH: B3 VH with N73D, F91S, A107S
VL: B3 VL with Q45H, H70Q, Y87F
B5: 2-J9-A (antibody, V domains shown)
VH: B3 VH with F91S
VL: B3 VL with A51T, S63T, H70Q
B6: 10-I12-A (antibody, V domains shown)
VH: RVQLQQSGPELVRPGTSVKISCKASGYTFTDSYINWVTQRPGQGLDWIGWIFPGNDNTYYNEKFEGKATLTLDKSSSTAYMLLSSLTSEDSAVYFCARSGGLRLGFAYWGQGTLVTVSA
VL: NIVLTQSPASLAVSRGQRATISCRASESVDSYGHSFIHWYQQKPGQPPKILIYLASKLESGVPARFSGSGSRTDFTLTIDPVEADDAATYYCQQNNEDPWTFGGGTKLEIK
B7: 8-N24-A (antibody, V domains shown)
VH: QVQLQQPGAELVKPGASVKVSCKASGYTFTSYWMHWVKQRPGQGLEWIGRIHPSDSDTNYYQKFKGKATLSVDKSSSTAYMQLSSLTSEDSAVYYCAIPLYSYDNSGGYYPMDYWGQGTSVTVSS
VL: DIVMTQSQKFMSTSVGDRVTITCKASQNVRTAVAWYQQKPGQSPKKLIYLASNRHTGVPDRFTGSGSGTDFTLAISNVQSEDLADYFCLQHWNYPFTFGSGTRLEIK
B8: 10-B11-A (antibody, V domains shown)
VH: B7 VH
VL: B7 VL
B9: 4-K16-A (antibody, V domains shown)
VH: QIQLVQSGPELKKPGETVKISCKASGYTFTTYGMSWVKQAPGKGLKWMGWMSTYSGVPTYADDFKGRFAFSLETSASTAYLQINNLKNEDTATYFCASGDVGYWGQGTTLTVSS
VL: DIVMTQSQKFMSTSVGDRVSVTCKASQNVGTNVAWYQQKPGQSPKALIYSASYRYSGVPDRFTGSGSGTDFTLTISTVQSEDLAEYFCQQYNIYPSTFGGGTKLEIK
B10: 4-C3-A (antibody, V domains shown)
VH: EVQLQQSGPELVKPGASVKISCKASGYSFTGYYMHWVKQSHGNILDWIGYIYPYNGVSSYNQKFKGKATLTVDKSSSTAYMELRSLTSEASAVYYCARAYGSSYDYYYGLDYWGQGTSVTVSS
VL: DIVLTQSPASLAVSLGQRATISCKASQSVDYDGAGYMNWYQQKPGQPPKLLISSASNLQSGIPARFSGSGSGTDFTLNIHPVEEEDAATYYCQQSNDDPYTFGGGTKLEIK
B11: 9-L13-A (antibody, V domains shown)
VH: QVQLKESGPGLVAPSQSLSITCTVSGFSLTSYAISWVRQPPGKGLEWLGLIWTGGGTNYNSALKSRLSISKDNSKSQIFLKMNSLQTDDTARYYCARGPPLIYYGDLYYFDYWGQGTTLTVSS
VL: DIQMTQSPSSLSASLGGKVTITCKASQDINKYIAWYQHKPGKGPRLLIHYTSTLQPGIPSRFSGSGSGRDYSFSISNLEPEDIATYYCLQYDNLWTFGGGTKLEIK
B12: 9-P9-A (antibody, V domains shown)
VH: DVKLVESGEGLVKPGGSLKLSCAASGFSFSNFGMSWVRQTPEKRLEWVAYISSGGDYIYYADTVKGRFTISRDNARNTLYLQMSSLKSEDTAIYYCTRGYFDYWGQGTTLTVSS
VL: DVLMTQTPLSLPVSLGDQASISCRSSQSIVHSNGNTYLEWYLQKPGQSPKLLIYTVSNRFSGVPDRFSGSGSGTDFTLKISRVEAEDLGVYYCFQGSHVPYTFGGGTKLEMR
B13: 2-P2-A (antibody, V domains shown)
VH: EVQLQQSGAELVRPGSSVKMSCKTSGYTFTSYGINWVKQRPGQGLEWIGYIYIGNGYTEYNEKFKGKATLTSDTSSSTAYMQLSSLTSEDSAIYFCARGGVDYWGQGTTLTVSS
VL: B12 VL with T55K, M111I, R112K
B14: 5-H22-A (antibody, V domains shown)
VH: QVQLQQSGAELVRPGASVTLSCKASGYTFTDYEMHWMKQTPVHGLEWIGAIDLETGGTVYNQKFKGKAILTADKSSNTAYMALRSLTSEDSAVYYCTREFPHYYGSRYGFPYWGQGTLVTVSA
VL: QIVLTQSPAIMSASPGEKVTITCSASSSVSYMHWLQQKPGTSPKLWIYSTSNLASGVPARFSGSGSGTSYSLTISRMEAEDAATYYCQQRSSYPYTFGGGTKLEIK

Changes are numbered by the printed parent chain.

In the first experiment the target is SARS-CoV-2 BA.2 spike trimer variant (SARS-CoV-2 Omicron BA.2, UniProt P0DTC2 16-1213). As to the kind of experiment: ELISA.
By EC50 is commonly meant the concentration at which the effect is half-maximal. The low end stands for a more potent agent, the high end for a less potent agent. B1 displayed an EC50 of 8.21 nM. Molecule B2 came in with a half-maximal effective concentration (EC50) of 20.6 nM. The same measure, in the same setting: the same measure for B3: 0.35 nM; for B4: 0.36 nM.

Molecule B5 registered an EC50 of 0.31 nM. The same measure, in the same setting: the same measure for B6: 81.1 nM.

For B7, the half-maximal effective concentration (EC50) stood at 3.25 nM. Still for that read-out and setting: the value for B8 was 0.84 nM; that for B9 was 3.87 nM. In the case of B10, the EC50 came out at 3.07 nM. Take B11: the EC50 was 12 nM.

With B12, the EC50 worked out at 0.3 nM. Still for that read-out and setting: the same measure for B13: 0.5 nM.

Another experiment has as its target SARS-CoV-2 B.1.1.529 spike trimer variant (SARS-CoV-2 B.1.1.529 (Omicron), UniProt P0DTC2 16-1213). The experiment is described as follows: ELISA. A general note: In an ELISA, binding on a coated surface is turned into a signal by an enzyme label.
The molecule B1 registered a 50% effective concentration (EC50) of 0.39 nM. On to B14, for which the midpoint of the response, the EC50, lay at 1.26 nM. Turning to B2, it took 64 nM to reach a half-maximal effect (EC50). The same measure, in the same setting: the same measure for B3: 0.35 nM; for B4: 0.36 nM; for B5: 0.4 nM. With B7, the EC50 was 4.19 nM.

In turn, B8 yielded an EC50 of 1.16 nM. Same read-out and setting: the value for B9 was 0.94 nM; that for B10 was 0.71 nM; that for B11 was 10.9 nM. On the same count and under the same terms, the same measure for B12: 0.29 nM. Turning to B13, the EC50 was 0.58 nM.
